Earlier results as cited in paper PMC3966486.
Values belong to the substance of their own block, whether it stands above or below them.

Legend:
His27 [1] = molecular target: His27 (UniProt position 55, AVVLSHYIHNL); conditions: unbound (free) monomer, not in the hormone-receptor complex
His180 = His180 (UniProt position 208, LRRDSHKIDNY); conditions: unbound (free) monomer, not in the hormone-receptor complex
His30 [2] = molecular target: His30 (UniProt position 58, LSHYIHNLSSE); conditions: unbound (free) monomer, not in the hormone-receptor complex
His30 [3] = molecular target: His30 (UniProt position 58, LSAYIHNLSSE); conditions: unbound (free) monomer, not in the hormone-receptor complex
His27 [4] = molecular target: His27 (UniProt position 55, AVVLSHYIANL); conditions: unbound (free) monomer, not in the hormone-receptor complex
His188 = His188 (UniProt position 212, RCKPDHGYWSA); conditions: unbound (free) monomer, not in the hormone-receptor complex
[5] = molecular target: human prolactin receptor extracellular domain (hPRLr-ECD), wild type (UniProt P16471); conditions: pH
[6] = molecular target: human prolactin receptor extracellular domain (hPRLr-ECD), wild type (UniProt P16471); conditions: pH; remark: listed apart in the source
[7] = molecular target: human prolactin receptor extracellular domain (hPRLr-ECD), wild type (UniProt P16471); conditions: pH; remark: listed apart in the source

Sequence of human prolactin receptor extracellular domain (hPRLr-ECD), wild type (P16471 whole entry, the tested form may be a part): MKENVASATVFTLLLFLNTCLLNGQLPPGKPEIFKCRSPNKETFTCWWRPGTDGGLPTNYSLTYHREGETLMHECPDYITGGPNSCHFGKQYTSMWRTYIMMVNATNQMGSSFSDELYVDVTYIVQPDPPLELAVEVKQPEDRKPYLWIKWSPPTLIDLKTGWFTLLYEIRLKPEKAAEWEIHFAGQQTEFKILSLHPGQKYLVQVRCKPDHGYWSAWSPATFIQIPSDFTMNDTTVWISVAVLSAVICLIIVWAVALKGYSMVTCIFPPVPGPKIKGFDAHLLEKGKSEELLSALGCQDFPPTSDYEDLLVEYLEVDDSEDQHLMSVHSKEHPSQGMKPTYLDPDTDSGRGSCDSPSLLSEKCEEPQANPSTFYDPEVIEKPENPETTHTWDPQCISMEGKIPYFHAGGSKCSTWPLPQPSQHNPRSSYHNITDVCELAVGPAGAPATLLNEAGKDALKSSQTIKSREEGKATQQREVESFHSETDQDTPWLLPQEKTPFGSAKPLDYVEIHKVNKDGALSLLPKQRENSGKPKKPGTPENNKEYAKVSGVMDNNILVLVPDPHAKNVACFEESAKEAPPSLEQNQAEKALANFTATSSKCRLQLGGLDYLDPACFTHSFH

Substance: Prolactin (hPRL) (Homo sapiens)
pKa (His27 [1]): 6.7
pKa (His180): 6.1
pKa (His30 [2]): 6.3

Substance: Prolactin (hPRL) H27A (Homo sapiens; H27A)
pKa (His180): 6.2
pKa (His30 [3]): 6.5

Substance: Prolactin (hPRL) H30A (Homo sapiens; H30A)
pKa (His180): 6.3
pKa (His27 [4]): 6.9

Substance: Prolactin (hPRL) H180A (Homo sapiens; H180A)
pKa (His27 [1]): 6.8
pKa (His30 [2]): 6.7

Substance: Prolactin receptor extracellular domain (hPRLr-ECD) (Homo sapiens)
pKa (His188): 7.7

pKa, His30 of hPRL H27A [5]: 6.5 pH units
pKa, His180 of hPRL H27A [5]: 6.2 pH units
Substance: human prolactin H27A H27A

pKa, His27 of hPRL H30A [6]: 6.9 pH units
pKa, His180 of hPRL H30A [6]: 6.3 pH units
Substance: human prolactin H30A H30A

pKa, His27 of hPRL H180A [7]: 6.8 pH units
pKa, His30 of hPRL H180A [7]: 6.7 pH units
Substance: human prolactin H180A H180A
